# Test results published in patent US20250223358A1 (ANTENGENE BIOLOGICS, published 2025).
# Changes are numbered by the printed parent chain. Names and notes keep the numbering of the source.
# B1: hu40E9-L2H3 (antibody, V domains shown)
# VH: EVQLVQSGAEVKKPGSSVKVSCKASGYTFSSYVIHWVRQAPGQGLEWMGYINPYNDVIKYNEKFKGRVTLTSDKSTSTAYMELSSLRSEDTAVYYCARDSYYSYDGFAYWGQGTLVTVSS
# VL: EIVLTQSPDFQSVTPKEKVTITCSASSSVSYMHWYQQKPDQSPKRLIYDTSKLASGVPSRFSGSGSGTDFTLTINSLEAEDAATYYCQQWSSNPPTFGGGTKVEIK
# notes: humanized 40-C12-C10-E9
# B2: hu40E9-L2H3-N55S.H (antibody, V domains shown)
# VH: B1 VH with N55S
# VL: B1 VL
# B3: hu40E9-L2H3-S91R.L (antibody, V domains shown)
# VH: B1 VH
# VL: B1 VL with S91R
# B4: hu40E9-L3H1 (antibody, V domains shown)
# VH: B1 VH with Y27G, L70I, S72A
# VL: B1 VL with L46W, F70Y
# notes: humanized 40-C12-C10-E9
# B5: hu40E9-L3H2 (antibody, V domains shown)
# VH: B1 VH with L70I, S72A
# VL: B1 VL with L46W, F70Y
# notes: humanized 40-C12-C10-E9
# B6: hu40E9-L2H3-D56G.H (antibody, V domains shown)
# VH: B1 VH with D56G
# VL: B1 VL
# B7: hu40E9-L2H3-D99E.H (antibody, V domains shown)
# VH: B1 VH with D99E
# VL: B1 VL
# B8: hu40E9-L2H3-N93R.L (antibody, V domains shown)
# VH: B1 VH
# VL: B1 VL with N93R
# B9: hu40E9-L2H3-Y101F.H (antibody, V domains shown)
# VH: B1 VH with Y101F
# VL: B1 VL
# B10: hu40E9-L2H3-Y54G.H (antibody, V domains shown)
# VH: B1 VH with Y54G
# VL: B1 VL
# B11: hu40E9-L2H3-D105E.H (antibody, V domains shown)
# VH: B1 VH with D105E
# VL: B1 VL
# B12: hu40E9-L2H4 (antibody, V domains shown)
# VH: B1 VH with M48I, V68A
# VL: B1 VL
# notes: humanized 40-C12-C10-E9
# B13: hu40E9-L2H3-N93S.L (antibody, V domains shown)
# VH: B1 VH
# VL: B1 VL with N93S
# B14: hu40E9-L2H3-N93W.L (antibody, V domains shown)
# VH: B1 VH
# VL: B1 VL with N93W
# B15: hu40E9-L3H4 (antibody, V domains shown)
# VH: B1 VH with M48I, V68A
# VL: B1 VL with L46W, F70Y
# notes: humanized 40-C12-C10-E9
# B16: hu40E9-L2H2 (antibody, V domains shown)
# VH: B1 VH with L70I, S72A
# VL: B1 VL
# notes: humanized 40-C12-C10-E9
# B17: hu40E9-L2H3-D105R.H (antibody, V domains shown)
# VH: B1 VH with D105R
# VL: B1 VL
# B18: hu40E9-L2H1 (antibody, V domains shown)
# VH: B1 VH with Y27G, L70I, S72A
# VL: B1 VL
# notes: humanized 40-C12-C10-E9
# B19: hu40E9-L2H3-G106A.H (antibody, V domains shown)
# VH: B1 VH with G106A
# VL: B1 VL
# B20: hu40E9-L2H3-Y102S.H (antibody, V domains shown)
# VH: B1 VH with Y102S
# VL: B1 VL
# B21: hu40E9-L2H5 (antibody, V domains shown)
# VH: B1 VH with Y54G, N55S, D56G
# VL: B1 VL
# B22: hu40E9-L2H10 (antibody, V domains shown)
# VH: B1 VH with D105E, G106A
# VL: B1 VL
# B23: hu40E9-L2H6 (antibody, V domains shown)
# VH: B1 VH with D99E, Y101F, Y102S
# VL: B1 VL
# B24: hu40E9-L2H7 (antibody, V domains shown)
# VH: B1 VH with Y54G, D56G, Y102S
# VL: B1 VL
# B25: hu40E9-L2H9 (antibody, V domains shown)
# VH: B1 VH with N55S, D99E, Y101F
# VL: B1 VL
# B26: hu40E9-L2H11 (antibody, V domains shown)
# VH: B1 VH with D105R, G106A
# VL: B1 VL
# B27: hu40E9-L2H8 (antibody, V domains shown)
# VH: B1 VH with Y54G, D99E, Y102S
# VL: B1 VL
# Target: T1, human CD3 (human, UniProt P07766 23-207; P04234 22-171; P09693 23-182)
# T1 construct: whole, on cells; also called hCD3; CD3 on Jurkat cells
# T1 sequence (P07766 23-207, chain 1 of 3): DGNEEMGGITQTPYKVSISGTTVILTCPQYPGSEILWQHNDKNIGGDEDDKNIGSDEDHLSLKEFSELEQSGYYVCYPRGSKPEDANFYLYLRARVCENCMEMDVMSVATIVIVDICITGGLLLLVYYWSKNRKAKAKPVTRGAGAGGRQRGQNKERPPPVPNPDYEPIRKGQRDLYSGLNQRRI
# T1 sequence (P04234 22-171, chain 2 of 3): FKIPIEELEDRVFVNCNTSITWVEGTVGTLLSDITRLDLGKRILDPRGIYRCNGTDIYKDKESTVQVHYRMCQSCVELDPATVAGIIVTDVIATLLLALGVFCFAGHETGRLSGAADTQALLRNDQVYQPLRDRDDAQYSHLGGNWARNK
# T1 sequence (P09693 23-182, chain 3 of 3): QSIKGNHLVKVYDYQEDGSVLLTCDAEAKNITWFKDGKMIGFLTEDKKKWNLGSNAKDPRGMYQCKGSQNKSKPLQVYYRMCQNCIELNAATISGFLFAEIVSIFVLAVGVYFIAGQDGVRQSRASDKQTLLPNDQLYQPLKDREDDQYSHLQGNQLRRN
# Assay: FACS on Jurkat cells
Binder,EC50 [nM],Top FACS signal
B1,0.65,1580
B2,0.51,1160
B3,0.32,1360
B4,0.75,1250
B5,0.52,1410
B6,0.32,1450
B7,0.31,957
B8,0.63,1420
B9,0.64,1190
B10,0.51,1190
B11,1.16,1410
B12,0.86,1570
B13,0.6,1360
B14,0.51,1210
B15,0.49,1360
B16,0.81,1570
B17,0.56,1480
B18,0.73,892
B19,2.39,771
B20,0.47,1160

# Target: T1, human CD3
# Assay: FACS on Jurkat cells
# Remark: another data set of the same source
Binder,EC50 [nM],Top FACS signal
B21,0.36,1920
B22,2.55,1680
B23,4.17,1260
B24,0.66,2380
B25,0.56,1760
B26,5,2000
B27,28,1240

# Target: T1, human CD3
# Assay: cell-based or functional assay
Binder,"EC50_Fold change (Jurkat-NFAT-luciferase activation, normalized to ch40-C12-C10-E9) [fold]","Top FACS signal_Fold change (Jurkat-NFAT-luciferase activation, normalized to ch40-C12-C10-E9) [fold]"
B1,2.43,1.18
B2,1.35,1.03
B3,0.79,0.95
B4,1.33,0.97
B5,0.57,0.73
B6,0.65,0.82
B7,1.19,0.91
B8,0.81,1.07
B9,1.23,0.94
B10,1.06,0.94
B11,3.77,0.74
B12,0.8,0.89
B13,0.74,0.87
B14,0.72,0.88
B15,0.61,0.64
B16,2.14,1.28
B17,1.95,0.81
B18,5.73,1.37
B19,4.95,0.99
B20,0.87,0.96

# Target: T1, human CD3
# Assay: cell-based or functional assay
# Remark: another data set of the same source
Binder,"EC50_Fold change (Jurkat-NFAT-luciferase activation, normalized to ch40-C12-C10-E9) [fold]","Top signal_Fold change (Jurkat-NFAT-luciferase activation, normalized to ch40-C12-C10-E9) [fold]"
B21,1.29,0.79
B22,12.6,1.01
B23,4.57,0.74
B24,1.18,0.77
B25,2.49,0.87
B26,2.97,0.85
B27,18.4,0.69
